A word on the Kd: it is the free concentration of one partner at which half of the binding sites on the other are occupied at equilibrium, for simple one-to-one binding. Higher therefore signals a looser complex.

Experiment [1] has as its target cNup153 (cysteine-tagged FG domain of human Nup153) (human) (UniProt P49790). Briefly: SPR. On the technique in general: Surface plasmon resonance follows binding to a sensor surface in real time, without labels.
Another experiment addresses karyopherinβ1 (human) (UniProt Q14974). Briefly: ITC. On the technique in general: In ITC the heat of successive injections is recorded.
In experiment [2] the target is cNup214 (cysteine-tagged FG domain of human Nup214) (human) (UniProt P35658). As to the kind of experiment: SPR.
In experiment [3] the target is cNup62 (cysteine-tagged FG domain of human Nup62) (human) (UniProt P37198). Briefly: SPR.
Sequence of cNup62 (cysteine-tagged FG domain of human Nup62) (human) (P37198 whole entry, the tested form may be a part): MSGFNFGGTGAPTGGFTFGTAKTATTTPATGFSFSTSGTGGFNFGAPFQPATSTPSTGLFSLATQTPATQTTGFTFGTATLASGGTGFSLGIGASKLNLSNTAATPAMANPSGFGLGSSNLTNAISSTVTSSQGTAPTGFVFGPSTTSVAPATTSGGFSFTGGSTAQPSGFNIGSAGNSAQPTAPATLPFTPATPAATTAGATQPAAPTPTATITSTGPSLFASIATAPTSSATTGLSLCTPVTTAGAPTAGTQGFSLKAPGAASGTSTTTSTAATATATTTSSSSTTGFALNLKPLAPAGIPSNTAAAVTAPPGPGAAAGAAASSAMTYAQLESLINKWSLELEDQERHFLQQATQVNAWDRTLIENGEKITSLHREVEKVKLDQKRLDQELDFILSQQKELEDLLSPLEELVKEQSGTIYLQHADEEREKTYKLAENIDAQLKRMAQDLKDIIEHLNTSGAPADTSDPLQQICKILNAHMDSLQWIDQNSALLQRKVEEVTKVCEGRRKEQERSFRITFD
In experiment [4] the target is cNup98 (cysteine-tagged FG domain of human Nup98) (human) (UniProt P52948). As to the kind of experiment: SPR.
Sequence of cNup98 (cysteine-tagged FG domain of human Nup98) (human) (P52948 whole entry, the tested form may be a part): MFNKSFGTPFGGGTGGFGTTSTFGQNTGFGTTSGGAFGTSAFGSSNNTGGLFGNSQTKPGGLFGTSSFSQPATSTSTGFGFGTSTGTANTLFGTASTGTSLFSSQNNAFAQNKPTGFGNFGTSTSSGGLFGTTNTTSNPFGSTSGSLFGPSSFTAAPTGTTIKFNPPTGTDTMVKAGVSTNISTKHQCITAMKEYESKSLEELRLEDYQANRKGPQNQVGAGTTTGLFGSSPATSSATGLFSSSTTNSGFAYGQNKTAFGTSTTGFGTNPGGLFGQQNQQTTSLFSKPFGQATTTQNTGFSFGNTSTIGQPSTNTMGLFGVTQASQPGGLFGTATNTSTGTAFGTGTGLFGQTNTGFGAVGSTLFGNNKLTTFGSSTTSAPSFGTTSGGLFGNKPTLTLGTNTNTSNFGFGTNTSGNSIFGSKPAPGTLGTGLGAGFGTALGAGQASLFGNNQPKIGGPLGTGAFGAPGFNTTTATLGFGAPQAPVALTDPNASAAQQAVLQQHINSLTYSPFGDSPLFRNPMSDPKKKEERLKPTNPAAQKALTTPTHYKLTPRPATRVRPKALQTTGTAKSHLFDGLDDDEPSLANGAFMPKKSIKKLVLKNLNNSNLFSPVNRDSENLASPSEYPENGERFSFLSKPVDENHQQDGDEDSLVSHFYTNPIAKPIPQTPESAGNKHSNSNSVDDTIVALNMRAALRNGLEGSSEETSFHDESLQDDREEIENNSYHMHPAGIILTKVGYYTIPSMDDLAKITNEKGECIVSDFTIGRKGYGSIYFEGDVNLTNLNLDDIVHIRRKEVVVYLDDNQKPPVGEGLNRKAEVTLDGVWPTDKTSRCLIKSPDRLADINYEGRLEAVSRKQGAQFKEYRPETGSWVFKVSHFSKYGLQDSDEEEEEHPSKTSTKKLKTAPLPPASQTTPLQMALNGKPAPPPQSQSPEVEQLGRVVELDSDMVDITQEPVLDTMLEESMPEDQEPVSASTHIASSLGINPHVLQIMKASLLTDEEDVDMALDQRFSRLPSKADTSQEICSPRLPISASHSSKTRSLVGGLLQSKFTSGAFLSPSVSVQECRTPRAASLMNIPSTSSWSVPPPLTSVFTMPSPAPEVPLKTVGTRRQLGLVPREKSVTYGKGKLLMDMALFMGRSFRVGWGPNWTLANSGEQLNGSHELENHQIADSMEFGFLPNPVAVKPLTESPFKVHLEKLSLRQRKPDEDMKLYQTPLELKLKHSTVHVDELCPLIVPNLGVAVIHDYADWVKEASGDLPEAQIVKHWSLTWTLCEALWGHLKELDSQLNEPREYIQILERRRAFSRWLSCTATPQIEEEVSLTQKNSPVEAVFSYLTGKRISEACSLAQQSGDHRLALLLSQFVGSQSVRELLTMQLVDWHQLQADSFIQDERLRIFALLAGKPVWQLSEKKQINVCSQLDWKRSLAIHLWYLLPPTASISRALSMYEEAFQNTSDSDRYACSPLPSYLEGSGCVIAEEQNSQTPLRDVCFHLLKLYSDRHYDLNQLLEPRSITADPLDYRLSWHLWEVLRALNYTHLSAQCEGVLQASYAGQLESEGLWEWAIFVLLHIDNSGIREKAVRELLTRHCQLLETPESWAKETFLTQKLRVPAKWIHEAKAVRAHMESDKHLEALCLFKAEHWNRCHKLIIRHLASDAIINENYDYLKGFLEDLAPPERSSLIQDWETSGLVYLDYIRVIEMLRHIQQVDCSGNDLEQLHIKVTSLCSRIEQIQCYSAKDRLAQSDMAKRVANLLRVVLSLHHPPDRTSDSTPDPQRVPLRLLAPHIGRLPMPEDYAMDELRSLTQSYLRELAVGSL

Sequence of karyopherinβ1 (human) (Q14974 whole entry, the tested form may be a part): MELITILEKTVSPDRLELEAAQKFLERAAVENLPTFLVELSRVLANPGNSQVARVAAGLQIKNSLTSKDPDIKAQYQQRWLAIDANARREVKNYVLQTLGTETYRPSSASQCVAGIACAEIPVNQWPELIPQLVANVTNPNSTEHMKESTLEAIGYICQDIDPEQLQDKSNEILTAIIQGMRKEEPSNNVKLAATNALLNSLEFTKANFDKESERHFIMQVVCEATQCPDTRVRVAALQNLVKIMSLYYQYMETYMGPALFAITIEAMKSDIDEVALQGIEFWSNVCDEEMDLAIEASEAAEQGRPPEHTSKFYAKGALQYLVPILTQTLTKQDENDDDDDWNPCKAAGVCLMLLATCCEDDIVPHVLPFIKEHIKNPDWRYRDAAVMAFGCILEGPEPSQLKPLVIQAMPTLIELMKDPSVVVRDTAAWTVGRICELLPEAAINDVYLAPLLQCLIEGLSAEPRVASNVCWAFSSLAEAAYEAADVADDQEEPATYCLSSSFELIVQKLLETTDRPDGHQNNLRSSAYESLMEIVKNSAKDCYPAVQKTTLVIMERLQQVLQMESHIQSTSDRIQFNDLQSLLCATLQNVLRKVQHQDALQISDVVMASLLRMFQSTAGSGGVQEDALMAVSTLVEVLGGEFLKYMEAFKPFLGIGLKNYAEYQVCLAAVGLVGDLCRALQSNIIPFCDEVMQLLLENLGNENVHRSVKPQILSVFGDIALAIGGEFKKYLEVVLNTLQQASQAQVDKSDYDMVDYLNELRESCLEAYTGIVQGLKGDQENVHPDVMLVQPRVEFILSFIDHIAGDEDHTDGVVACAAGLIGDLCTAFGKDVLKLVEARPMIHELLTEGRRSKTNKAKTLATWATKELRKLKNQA
Sequence of cNup153 (cysteine-tagged FG domain of human Nup153) (human) (P49790 whole entry, the tested form may be a part): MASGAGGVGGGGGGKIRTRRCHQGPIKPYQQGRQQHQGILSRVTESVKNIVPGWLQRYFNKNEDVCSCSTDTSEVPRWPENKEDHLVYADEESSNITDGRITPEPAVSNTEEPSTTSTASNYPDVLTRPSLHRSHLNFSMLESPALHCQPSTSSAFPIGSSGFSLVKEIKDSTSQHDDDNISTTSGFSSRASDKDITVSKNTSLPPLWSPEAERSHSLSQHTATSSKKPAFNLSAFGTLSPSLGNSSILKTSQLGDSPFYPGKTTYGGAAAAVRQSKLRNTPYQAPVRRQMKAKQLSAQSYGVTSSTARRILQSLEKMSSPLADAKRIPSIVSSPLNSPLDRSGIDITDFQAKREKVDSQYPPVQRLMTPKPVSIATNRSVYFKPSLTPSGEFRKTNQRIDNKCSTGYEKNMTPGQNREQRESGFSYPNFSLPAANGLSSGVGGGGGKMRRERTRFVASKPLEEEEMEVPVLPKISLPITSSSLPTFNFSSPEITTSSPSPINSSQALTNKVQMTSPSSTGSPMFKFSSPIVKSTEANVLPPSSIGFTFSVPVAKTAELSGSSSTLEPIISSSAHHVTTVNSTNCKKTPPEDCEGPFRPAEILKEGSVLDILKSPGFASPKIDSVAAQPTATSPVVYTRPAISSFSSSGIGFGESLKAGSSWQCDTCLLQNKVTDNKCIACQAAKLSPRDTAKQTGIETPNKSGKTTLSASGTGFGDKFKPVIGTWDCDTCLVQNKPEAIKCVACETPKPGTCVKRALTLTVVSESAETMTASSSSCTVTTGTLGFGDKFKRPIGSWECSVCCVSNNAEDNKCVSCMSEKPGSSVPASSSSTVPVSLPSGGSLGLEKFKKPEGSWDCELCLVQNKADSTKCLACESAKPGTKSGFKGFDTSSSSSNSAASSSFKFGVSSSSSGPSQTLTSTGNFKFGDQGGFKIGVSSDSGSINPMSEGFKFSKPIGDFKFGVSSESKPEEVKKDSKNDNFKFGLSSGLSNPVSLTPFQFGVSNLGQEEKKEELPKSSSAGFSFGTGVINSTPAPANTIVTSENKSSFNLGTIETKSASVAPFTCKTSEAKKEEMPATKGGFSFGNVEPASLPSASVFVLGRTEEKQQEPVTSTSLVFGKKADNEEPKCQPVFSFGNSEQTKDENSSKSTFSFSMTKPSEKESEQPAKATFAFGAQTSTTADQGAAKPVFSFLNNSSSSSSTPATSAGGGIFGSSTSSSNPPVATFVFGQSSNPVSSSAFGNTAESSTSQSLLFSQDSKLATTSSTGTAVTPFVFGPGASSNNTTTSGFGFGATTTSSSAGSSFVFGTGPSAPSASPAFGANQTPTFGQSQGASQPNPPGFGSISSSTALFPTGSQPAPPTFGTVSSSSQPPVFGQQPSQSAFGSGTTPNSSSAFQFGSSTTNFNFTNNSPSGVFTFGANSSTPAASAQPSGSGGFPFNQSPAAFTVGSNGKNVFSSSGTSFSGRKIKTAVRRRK

“karyopherinα (from UniProt P52292 1-529) (natural protein)”: the Kd in experiment [1] amounted to 1.3 µM; with karyopherinβ1 (human), 0.21 µM.

As to “Kapα·Kapβ1 (from UniProt P52292;Q14974) (complex)”, the fold higher affinity than Kapβ1 and RanGTP·Kapβ1 (strong binding phase) in experiment [1], in experiment [2], in experiment [3] and in experiment [4] was 10 fold in each case.

“RanGTP (from UniProt P62826 1-216) (natural protein)” returned a Kd in the experiment with karyopherinβ1 (human) of 0.035 µM.
